Measurements: patent publication US20230037552A1 (published 2023)

What was measured:
[1] = molecular target: T1, MAGEA1 KVL peptide, threonine substitution at position 3 (L) peptide on HLA-A*02:01 (human); experiment: cytokine release
T1 peptide: KVTEYVIKV

[2] = molecular target: T2, MAGEA1 KVL peptide, threonine substitution at position 5 (Y) peptide on HLA-A*02:01 (human); experiment: cytokine release
T2 peptide: KVLETVIKV

[3] = molecular target: T3, ASTN1 peptide on HLA-A*02:01 (human); experiment: cytokine release
T3 peptide: KLYGLDWAEL

[4] = molecular target: T4, MAGEA1 peptide on HLA-A*02:04 (human); experiment: cytokine release
T4 peptide: KVLEYVIKV

[5] = molecular target: T5, MAGEA1 peptide on HLA-A*02:16 (human); experiment: cytokine release
T5 peptide: KVLEYVIKV

[6] = molecular target: T6, MAGEA1 peptide on HLA-A*02:17 (human); experiment: cytokine release
T6 peptide: KVLEYVIKV

[7] = molecular target: T7, MAGEA1 KVL peptide, threonine substitution at position 1 (K) peptide on HLA-A*02:01 (human); experiment: cytokine release
T7 peptide: TVLEYVIKV

[8] = molecular target: T8, MAGEA1 peptide on HLA-A*02:01 (human); experiment: multimer staining
T8 peptide: KVLEYVIKV

binding result [1]: no recognition
binding result [2]: no recognition
binding result [3]: no recognition
binding result [4]: recognises
binding result [5]: recognises
binding result [6]: recognises
binding result [7]: no recognition
binding result [8]: recognises
B1: TCR T15.8-4.3-83 (TCR, V domains shown)
Valpha: AQKVTQAQTEISVVEKEDVTLDCVYETRDTTYYLFWYKQPPSGELVFLIRRNSFDEQNEISGRYSWNFQKSTSSFNFTITASQVVDSAVYFCALSEVASGGSYIPTFGRGTSLIVHP
Vbeta: SQTIHQWPATLVQPVGSPLSLECTVEGTSNPNLYWYRQAAGRGLQLLFYSVGIGQISSEVPQNLSASRPQDRQFILSSKKLLLSDSGFYLCAWSGSGGNQPQHFGDGTRLSIL
